Source: the supplement of paper PMC10126150
± gives the standard deviation of the averaged measurements.

Tested on: ATP
Assay: switch fluorescence ratio, 500 uM ATP over buffer (Cy3 cluster intensity, sum of 5 cycles each) (fold (ratio)); higher = stronger signal-on switching upon ATP binding; sequences stand for … in TCGTCGGCAGCGTCAGATGTGTATAAGAGACAGTTTTTTTTTTTTTTTTTTTTTTTTT…TC
Details: aptamer strand: ATP DNA aptamer (quencher-CACCTGGGGGAGTATTGCGGAGGAAGG + anchor), 100 nM annealed; ATP concentration: 500 uM
Summary of the method: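 Cy3-labelled switching-strand clusters on a modified Illumina MiSeq flow-cell were annealed to 100 nM quencher-labelled ATP aptamer, imaged in selection buffer, then imaged after 15 min with 500 uM ATP at 22 °C. Five buffer/ATP cycles ran, with NaOH stripping and re-annealing between them. The fluorescence ratio is summed target-cycle over summed buffer-cycle Cy3 intensity per cluster, averaged per switch-domain sequence. Clusters outside 100-1000 RFU were excluded.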
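Further: ATP exposure 15 min at 22 °C before imaging.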

Row | Sequence | switch fluorescence ratio
1 | CTTAACCATT | 0.98 ± 0.014
2 | CTTACCTTGA | 0.997 ± 0.031
3 | CTTAGATTCT | 0.993 ± 0.012
4 | CTTAGGCCAC | 0.99 ± 0.024
5 | CTTAGGGCAC | 1.05 ± 0.016
6 | CTTAGGGGGT | 1 ± 0.018
7 | CTTAGGGGTA | 0.999 ± 0.043
8 | CTTAGTAATG | 1.05 ± 0.11
9 | CTTAGTACGG | 1.01 ± 0.054
10 | CTTAGTGCTT | 0.973 ± 0.039
11 | CTTAGTGGGG | 0.962 ± 0.048
12 | CTTATAGGTC | 1.01 ± 0.017
13 | CTTATGATGG | 0.987 ± 0.01
14 | CTTATTAGGG | 0.986 ± 0.021
15 | CTTATTTTTT | 1.01 ± 0.029
16 | CTTCATAAGT | 0.983 ± 0.022
17 | CTTCATGCTT | 1.02 ± 0.048
18 | CTTCCGGAGG | 1.9 ± 0.048
19 | CTTCGGACGG | 1.24 ± 0.036
20 | CTTCGGGGCG | 1.01 ± 0.07
21 | CTTCGGGGTT | 1.03 ± 0.035
22 | CTTCGGTGGC | 1.01 ± 0.04
23 | CTTCGTATCG | 1.04 ± 0.059
24 | CTTCTACGAT | 0.998 ± 0.013
25 | CTTCTAGAT | 0.9895 ± 0.0013

Row | Sequence | switch fluorescence ratio
26 | CTTCTGGTCG | 1.01 ± 0.04
27 | CTTCTTCGGT | 1 ± 0.015
28 | CTTCTTTCTC | 1.051 ± 0.0084
29 | CTTGAAAACT | 1.04 ± 0.044
30 | CTTGAACGAA | 1.02 ± 0.04
31 | CTTGAATTTC | 0.987 ± 0.017
32 | CTTGACAATT | 1 ± 0.023
33 | CTTGAGTGTG | 0.9827 ± 0.006
34 | CTTGCAAACG | 1.201 ± 0.0043
35 | CTTGCCTCAG | 1.021 ± 0.0076
36 | CTTGCTATGC | 1.64 ± 0.4
37 | CTTGCTGTTG | 1.0031 ± 0.00076
38 | CTTGGAGGAA | 0.999 ± 0.044
39 | CTTGGCGAGA | 1.01 ± 0.018
40 | CTTGGGAATA | 1.01 ± 0.05
41 | CTTGGGATCA | 0.971 ± 0.011
42 | CTTGGGATTA | 1.03 ± 0.016
43 | CTTGGGGATC | 0.979 ± 0.013
44 | CTTGGGGTTA | 0.998 ± 0.023
45 | CTTGTAAATT | 0.983 ± 0.035
46 | CTTGTACTAA | 1.012 ± 0.0062
47 | CTTGTATAGC | 0.992 ± 0.028
48 | CTTGTCATCT | 1.005 ± 0.0061
49 | CTTGTGAGGA | 1 ± 0.036
50 | CTTGTGGCGT | 1 ± 0.049

Row | Sequence | switch fluorescence ratio
51 | CTTGTGTACG | 0.965 ± 0.02
52 | CTTGTGTGTT | 0.993 ± 0.057
53 | CTTTAAGGGA | 0.9875 ± 0.0035
54 | CTTTACAGGG | 1 ± 0.064
55 | CTTTACTTTT | 1.014 ± 0.0061
56 | CTTTATGCGG | 0.99361 ± 0.00077
57 | CTTTATGTCT | 1 ± 0.033
58 | CTTTGAGCGA | 1.11 ± 0.032
59 | CTTTGATTGA | 0.9806 ± 0.0047
60 | CTTTGCACGA | 1.1 ± 0.0077
61 | CTTTGTAGGG | 1.008 ± 0.0029
62 | CTTTGTAGTA | 0.977 ± 0.034
63 | CTTTGTGGGG | 1.01 ± 0.029
64 | CTTTTAACTC | 1.01 ± 0.024
65 | CTTTTAATAG | 1.08 ± 0.057
66 | CTTTTACATG | 1.003 ± 0.0095
67 | CTTTTAGAAC | 0.986 ± 0.027
68 | CTTTTCAGGT | 0.998 ± 0.019
69 | CTTTTCTGAT | 0.993 ± 0.04
70 | CTTTTCTGTT | 0.9861 ± 0.0085
71 | CTTTTGAGGA | 0.9952 ± 0.0042
72 | CTTTTGGGCG | 1.01 ± 0.056
73 | CTTTTTATGT | 0.96 ± 0.016
74 | CTTTTTGACT | 1.01 ± 0.028
75 | CTTTTTGGAC | 0.994 ± 0.071

Row | Sequence | switch fluorescence ratio
76 | CTTTTTGGGA | 0.987 ± 0.012
77 | CTTTTTGTTG | 1.03 ± 0.031
78 | CTTTTTTAAT | 0.982 ± 0.012
79 | CTTTTTTGTT | 1 ± 0.021
80 | CTTTTTTTGG | 1 ± 0.022
81 | GAAAAAAGGA | 0.981 ± 0.028
82 | GAAAAACTGT | 1.06 ± 0.021
83 | GAAAAAGGAG | 1 ± 0.018
84 | GAAAAAGGCG | 1.01 ± 0.043
85 | GAAAAAGTCG | 0.997 ± 0.042
86 | GAAAACATAG | 1.01 ± 0.02
87 | GAAAACTTAA | 1.029 ± 0.006
88 | GAAAAGCATG | 0.988 ± 0.043
89 | GAAAAGGGAG | 0.974 ± 0.032
90 | GAAAATAGAT | 0.9663 ± 0.0028
91 | GAAAATTAGT | 1.016 ± 0.0023
92 | GAAAATTTTT | 1.06 ± 0.044
93 | GAAACAGTGT | 0.9732 ± 0.0046
94 | GAAACGGATG | 0.993 ± 0.041
95 | GAAACTAGTT | 0.992 ± 0.013
96 | GAAACTTAGG | 1.01 ± 0.019
97 | GAAAGAAGTC | 1.05 ± 0.02
98 | GAAAGAGAGT | 0.987 ± 0.023
99 | GAAAGATTAT | 1.03 ± 0.02
100 | GAAAGCCTTT | 1 ± 0.012
